Source: PMC7266993, “STAG1 vulnerabilities for exploiting cohesin synthetic lethality in STAG2-deficient cancers” (Life Science Alliance, 2020)

Experiments:
[1] = molecular target: T1, Biotinylated RAD21 peptide, residues 356-395 (Biotin-Ttds-RAD21 356-395) (human, N-terminal biotin followed by a trioxatridecan–succinamic acid spacer (Biotin-Ttds-)); experiment: SPR; Biacore S200, SA chip, biotinylated RAD21 356-395 immobilised; STAG1 as analyte, equilibrium analysis (650 s association, 1,200 s dissociation), dose-response fit; 10 mM Hepes pH 7.5, 150 mM NaCl, 0.5 mM TCEP; apparent; conditions: both partners purified
T1 construct: Immobilised on a streptavidin (SA) sensor chip through the biotin; source: synthetic peptide, purchased
T1 peptide: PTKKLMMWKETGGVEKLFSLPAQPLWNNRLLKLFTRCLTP

[2] = molecular target: T1, Biotinylated RAD21 peptide, residues …; experiment: SPR; Biacore S200, SA chip, ~400 RU biotinylated RAD21 356-395 immobilised; STAG1 as analyte, single cycle kinetics 7.5-1,000 nM, 120 s injections; 10 mM Hepes pH 7.5, 150 mM NaCl, 0.5 mM TCEP; 1:1 binding model; conditions: both partners purified

B1: STAG1 central region, wild type, as used in surface plasmon resonance (residues 415-915 as printed in the results) (domain or fragment)
chain: NVYHLVYSAHRPVAVAAGEFLHKKLFSRHDPQAEEALAKRRGRNSPNGNLIRMLVLFFLESELHEHAAYLVDSLWESSQELLKDWECMTELLLEEPVQGEEAMSDRQESALIELMVCTIRQAAEAHPPVGRGTGKRVLTAKERKTQIDDRNKLTEHFIITLPMLLSKYSADAEKVANLLQIPQYFDLEIYSTGRMEKHLDALLKQIKFVVEKHVESDVLEACSKTYSILCSEEYTIQNRVDIARSQLIDEFVDRFNHSVEDLLQEGEEADDDDIYNVLSTLKRLTSFHNAHDLTKWDLFGNCYRLLKTGIEHGAMPEQIVVQALQCSHYSILWQLVKITDGSPSKEDLLVLRKTVKSFLAVCQQCLSNVNTPVKEQAFMLLCDLLMIFSHQLMTGGREGLQPLVFNPDTGLQSELLSFVMDHVFIDQDEENQSMEGDEEDEANKIEALHKRRNLLAAFSKLIIYDIVDMHAAADIFKHYMKYYNDYGDIIKETLSKTRQID
Kd [1]: 0.148 ± 0.022 µM | Kd [2]: 0.127 µM | koff [2]: 0.00709 s⁻¹ | kon [2]: 55900 M⁻¹ s⁻¹
